Measured values: patent US20260234247A1 (published 2026)

How the values were obtained:
[1] = target: T1, human LILRB1 expressed on CHOK1 cells (CHOK1-hLILRB1) (human, UniProt Q8NHL6 24-650); test: FACS binding to CHOK1-hLILRB1 cells
T1 construct: whole, on cells; also called CHOK1-LILRB1

[2] = target: T2, human LILRB2 expressed on CHOK1 cells (CHOK1-hLILRB2) (human, UniProt Q8N423 22-597); test: FACS binding to CHOK1-hLILRB2 cells
T2 construct: whole, on cells; also called CHOK1-LILRB2

[3] = target: T2, human LILRB2 expressed on CHOK1 cells …; test: cell based RBA, flow cytometry: blocking of HLA-G binding to CHOK1-hLILRB2 cells

T2 sequence (Q8N423 22-597): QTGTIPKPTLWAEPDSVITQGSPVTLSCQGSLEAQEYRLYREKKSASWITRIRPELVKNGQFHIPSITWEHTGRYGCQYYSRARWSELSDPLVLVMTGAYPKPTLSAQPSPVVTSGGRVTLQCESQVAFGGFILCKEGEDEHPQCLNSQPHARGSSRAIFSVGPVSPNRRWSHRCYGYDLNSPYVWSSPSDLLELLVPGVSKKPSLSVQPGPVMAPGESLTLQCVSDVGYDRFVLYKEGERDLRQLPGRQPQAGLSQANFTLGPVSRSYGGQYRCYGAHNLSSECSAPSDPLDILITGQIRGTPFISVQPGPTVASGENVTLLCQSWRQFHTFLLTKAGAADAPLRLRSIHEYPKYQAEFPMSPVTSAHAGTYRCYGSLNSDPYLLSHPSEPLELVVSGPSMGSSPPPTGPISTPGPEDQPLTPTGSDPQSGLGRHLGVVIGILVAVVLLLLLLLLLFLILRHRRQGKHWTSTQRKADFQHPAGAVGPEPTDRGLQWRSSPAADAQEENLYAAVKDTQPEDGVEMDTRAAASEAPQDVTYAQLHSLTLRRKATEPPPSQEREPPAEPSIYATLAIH
T1 sequence (Q8NHL6 24-650): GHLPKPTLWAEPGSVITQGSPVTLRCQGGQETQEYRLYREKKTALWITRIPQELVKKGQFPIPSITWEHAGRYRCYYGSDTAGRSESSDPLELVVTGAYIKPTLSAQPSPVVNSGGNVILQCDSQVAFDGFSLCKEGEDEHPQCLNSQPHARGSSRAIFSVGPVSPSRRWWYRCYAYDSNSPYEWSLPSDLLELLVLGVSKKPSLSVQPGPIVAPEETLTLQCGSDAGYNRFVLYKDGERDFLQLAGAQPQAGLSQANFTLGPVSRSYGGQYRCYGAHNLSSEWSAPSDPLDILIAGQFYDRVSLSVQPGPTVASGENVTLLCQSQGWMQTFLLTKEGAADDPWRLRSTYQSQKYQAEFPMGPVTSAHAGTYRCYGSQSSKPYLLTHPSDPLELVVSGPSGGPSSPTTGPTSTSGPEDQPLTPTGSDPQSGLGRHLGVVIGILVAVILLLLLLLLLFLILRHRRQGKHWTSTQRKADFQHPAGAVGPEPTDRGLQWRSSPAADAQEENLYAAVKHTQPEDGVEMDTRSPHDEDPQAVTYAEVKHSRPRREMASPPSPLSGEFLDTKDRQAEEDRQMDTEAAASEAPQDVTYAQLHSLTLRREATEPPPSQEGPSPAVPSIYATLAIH

binding result [1]	EC50 [2] [pM]	EC50 [3] [pM]	Top Inhibition [3] [%]	EC50 [1] [pM]	binding result [2]	Binder
no binding	240	323	73.7			LK-RB2-1 (antibody, human IgG4 S228P, kappa, V domains shown) VH: QIQLVQSGPELKKPGETVKISCKASGYTFTTYGMSWVKQAPGKGLKWMGWINTYSGVSTYADDFKGRFAFSLETSASTAYLQINNLKNEDTATYFCARRYDYDGYAMDYWGQGTSVTVSS VL: DIVMSQSPSSLAVSVGEKVTMSCKSSQSLLFSSNQKNYLAWYQQKPGQSPKLLIYWASTRESGVPDRFTGRGSGTDFTLTISSVKTEDLAVYYCQQYDTYPPTFGGGTKLEIKR
no binding	340	268	77.3			LK-RB2-37 (antibody, human IgG4 S228P, kappa, V domains shown) VH: QIQLVQSGPEVKKPGETVKISCKASGYTFTTYGMSWVKQAPGKGLKWMGWINTYSGVPTYADDFKGRFAFSLETSVSTAYLQINNLKNEDTSTYFCARRRDYDGYAMDYWGQGTSVTVSS VL: DIVMSQSPSSLAVSVGEKVTMSCKSSQSLLYSGNQKNYLAWYQQKPGQSPKLLIYWASARESGVPDRFTGSGSGTDFTLTISSVKAEDLAVYYCQQYYTYPFTFGSGTKLEIKR
	220	112	71.1	45300		LK-RB2-22 (antibody, human IgG4 S228P, kappa, V domains shown) VH: QIQLVQSGPELKKTGETVKISCKASGYTFTTYGMSWVKQAPGKGLKWMGWINIYSGVPTYADDFKGRFAFSLETSASTAYLQINNLKNEDTATYFCARRADYDGYYFDYWGQGTTLTVSS VL: NIVMTQTPKFLLVSAGDRVTITCRASQSVTNDVAWYQQRPGQSLKLLIYYASNRYTGVPDRFTGSGYGTDFTFTISTVQAEDLAVYFCQQGYSSPFTFGSGTKLEIKR
	260	198	71.2	65500		LK-RB2-23 (antibody, human IgG4 S228P, kappa, V domains shown) VH: QIQLVQSGPELKKPGETVKISCKASGYTFTTYGMSWVKQAPGKGLKWMGWINIYSGVPTYADDFKGRFAFSLETSASTAYLQINNLKNEDTATYFCARRGDYDGYYFDYWGQGTTLTVSS VL: NIVLIQSAATLSVTPGDSVSLSCRASQSLSNGLHWYQQKSHESPRLLIKYGSQSISGIPSRFSGSGSGTDFTLSINSVETEDFGMYFCQQSDSWPHTFGSGTKLEIKR
no binding	720	506	80.6			LK-RB2-36 (antibody, human IgG4 S228P, kappa, V domains shown) VH: QVQLQQSGAELVRPGASVKMSCKASGYTFTNYWIGWAKQRPGHGLEWIGDIYPGGTYTGYNEKFKGKATLTADKSSSTAYMQFSSLTSEDSAIYYCARRMDYDGYAMDYWGQGTSVTVSS VL: DIVLTQSPASLSVTPGDSVSLSCRASQSISNNLHWYQQKSHESPRLLIKYASQSISGIPSRFSGSGSGTDFTLSINSVETEDFGMYFCQQSNSWPLTFGAGTKLELKR
no binding	2280	1610	62.4			LK-RB2-21 (antibody, human IgG4 S228P, kappa, V domains shown) VH: EVQLVESGGDLVKPGGSLKLSCAASGFTFSSYGMSWVRQTPDKRLEWVATISSGGSYTYYPDSLKGRFTISRDNAKSTLYLQMSSLKSEDTAKYYCARPYYDYIFYAIDYWGQGTSVTVSS VL: DIQMNQSPSSLSASLGDTITITCHASQNINVWLSWYQQKPGNIPKLLIYKASNLHTGVPSRFSGSGSGTGFTLTISSLQPEDIATYYCQQGQSYPLTFGGGTKLEIKR
no binding	910	1870	90			LK-RB2-33 (antibody, human IgG4 S228P, kappa, V domains shown) VH: EVQLQQSGVELVRPGALVKLSCKASGFNIKDYYMHWVKQRPEQGLEWIGWIDPEKGDTIYGPKFQGKASITADTSSNTAYLQLSSLTSEDTAVYYCSRGPNYGSSYAFAYWGQGTLVTVSA VL: DVVMTQSHKFMSTSVGDRVTITCKASQDVSNAVAWYQQKPGQSPKLLIYSASYRYTGVPDRFTGSGSGTDFTFTISSMQAEDLAVYYCQQHYSLPWTFGGGTKLEIKR
no binding					no binding	LK-RB2-42 (antibody, human IgG4 S228P, kappa, V domains shown) VH: EFQLQQSGPELVKPGASVKISCKASGYSFTDYNMNWVKQSNGKSLDWIGIINPKYGTTAYNQKLRDKATLTVDQSSSTAYMQLNSLTSEDSAVYYCASLNWDEGFAYWGQGTLVTVSP VL: DVLMTQTPLSLPVSLGDQASISCRSSQSIVHSNGNTYLEWYLQKPGQPPKLLIYKVSNRFSGVPERFSGSGSGTDFTLKINRVEAEDLGVYYCFQGSLVPPTFGGGTKLEIKR
no binding	250	134	74.5			LK-RB2-2 (antibody, human IgG4 S228P, kappa, V domains shown) VH: DVKLEESGEGLVKPGGSLKLSCAASGFTFSSYAMSWVRQTPEKRLEWVAYISSGGDYFHYADTVKGRFTISRDNARNTLYLQMSSLKSEDTAMYYCTREGAHYDSSYLAWFAHWGQGTLVTVSA VL: DIQMTQSPASLSVSVGETVTITCRASENIYSNLAWYQQRQGKSPQLLVYAATNLADGVPSRFSGSGSGTQYSLKINSLQSEDFGSYYCQQFWDNPLTFGAGTKLELKR
no binding					no binding	LK-RB2-30 (antibody, human IgG4 S228P, kappa, V domains shown) VH: EVQLVESGGGLVQPGGSLKLSCAASGFTFNTDGMSWVRQTPDKRLELVAIINSNGGSTYYPDSVKGRFTISRDNAKNTLYLQMSSLKSEDTAMYYCAREGSYGSWFAYWGQGTLVTVSA VL: DIQMTQSPASLSVSVGETVTITCRASENINNNLAWYHQKQGKSPQLLVYAATNLADGVPSRFSGSGSGTQYSLKINSLQSEDFGSYYCQHFWGTPFTFGGGTKLEIKR
no binding	1610	1710	65.2			LK-RB2-4 (antibody, human IgG4 S228P, kappa, V domains shown) VH: EVQLVESGGDLVKPGGSLKLSCAASGFTFSNYGMSWVRQTPDKRLEWVATISSGGSYTFYPDSVKGRFTISRDNAKNTLYLQMSSLKSEDTALYYCARDYYYGKTIEGYFDYWGQGTTLTVSS VL: DIQMTQTTSSLSASLGDRVTISCRANQDISNYLNWYQQKPDGTVKLLIYYTSRLHSGVPSRFSGSGSGTDYSLTISDLEQEDIATYFCQQGNTLPWTFGGGTKLEIKR
no binding					no binding	LK-RB2-38 (antibody, human IgG4 S228P, kappa, V domains shown) VH: EVKLVESGGGLVQPGGSLKLSCAASGFSFSDYYMYWVRQTPEKRLEWVAYISNGGGNTYYPDTVKGRFTISRDNAKNSLYLQMSRLKSEDTGMYYCARDREDWYFDVWGTGTTVTVSS VL: DIVMTQSHTFMSTSVGDRVSITCKASQDVSTAVAWYQQKPGQSPKLLIYWASTRHTGVPDRFTGSGSGTDYTLTISSVQAEDLALYYCQQHYSTPRTFGGGTKLEIKR
	2340	50300	18.1	7060		LK-RB2-19 (antibody, human IgG4 S228P, kappa, V domains shown) VH: QVQLQQPGAELVKPGASVKLSCKASGYTFTSYWMHWVKQRPGQGLEWIGMIHPNSGGTNYNEKFKSKATLTVDKSSSTAYMQFSSLTSEDSAVYYCARCTVVALYYALDYWGQGTSVTVSS VL: QIVLSQSPAILSASPGEKVTMTCRATSRVSYIHWFQQKPGSSPKPWIYVTSNLASGVPARFSGSGSGTSYSLTISKLEAEDVATYYCQQWSTNPLTFGAGTKLELKR
no binding					no binding	LK-RB2-34 (antibody, human IgG4 S228P, kappa, V domains shown) VH: DVKVVESGGGLVKPGGSLKLSCAASGFTFSSYSMSWVRQTPEKRLEWVATISTGSSYTYYSDSVKGRFTISRDNAKNTLYLQMSSLKSEDTAMFYCTRGSMDYWGQGTSVTVSS VL: DILMTQSPSSMSVSLGDTVSITCHASQDISSNIGWLQQKPGNSFKGLIYHGINLEDGVPSRFSGSGSGADYSLTISSLESEDFADYYCVQYAQFPYTFGGGTKLEIKR
no binding	290	231	73.8			LK-RB2-14 (antibody, human IgG4 S228P, kappa, V domains shown) VH: QVQLKQSGPGLVQPSQSLSITCTVSGFSLTSYGVHWVRQSPGKGLEWLGVIWRGGSTDYNAAFMSRLSITKDNSKSQVFFKMNSLQADDTAIYYCAKNEGDSTVVAWYFDVWGTGTTVTVSS VL: DIQMTQTTSSLSASLGDRVTISCSASQGISNYLNWFQQKPDGTVKLLIYYTSSLHSGVPSRFSGSGSGTDYSLTISNLEPEDIATYYCQQYSKLPLTFGAGTKLELKR
no binding	400	946	73.2			LK-RB2-3 (antibody, human IgG4 S228P, kappa, V domains shown) VH: QLQLQQSDAELVKPGASVKISCKVSGYSFTDHTIHWMKQRPEQGLEWIGYIYPRDGSTKENEKFTGKATLTADKSSSTAYMQLTSLTSEDSAVYFCTGSGFDYWGQGTSLTVSS VL: DIKMTQSPSSMYASLGERVTITCKASQDIKSYLSWFQQKPGKSPKTLIYRANRLVDGVPSRFSGSGSGQDYSLTINSLEYEDMEIYYCLQYDEFPYTFGGGTKLEIKR
no binding	180	203	88.4			LK-RB2-35 (antibody, human IgG4 S228P, kappa, V domains shown) VH: EVQLQQSGPELVKPGASVKISCKASGYTFTDYNMHWVKQSHGKSLEWIGSIYPYNGGSDYNQKFKSKATLTVDNSSSTAYMELRSLTSEDSAVYYCASELTGLYAMDYWGQGTSVTVSS VL: DIVMTQSPATLSVTPGDRVSLSCRASQSISDYLHWYQQKSHESPRLLIKYASQSISGIPSRFSGSGSGSDFTLSINSVEPEDVGVYYCQTGHSFPYTFGGGTKLEIKR
no binding					no binding	LK-RB2-29 (antibody, human IgG4 S228P, kappa, V domains shown) VH: QVQLQQSGAELARPGASVKLSCKASGYTFTSYWMQWVKQRPGQGLEWIGAIYPGDGDTRYTQKFKGKATLTADKSSSTAYMQLSSLASEDSAVYYCARGYYGSSYADYFDYWGQGTTLTVSS VL: DIQMTQSPASLSASVGETVTITCRASGNIHNYLAWYQQKQGKSPQLLVYNAKTLADGVPSRFSGSGSGTQYSLKINSLQPEDFGSYYCQHFWSTPPTFGGGTKLEIKR
